Laboratory results: patent US20140087995A1 (published 2014)
Numbered stars: 1 amine (or outer) side, 2 acyl side, 3 side chain; on linkers, the order of the positions; unused ones are H or OH. Bridge positions count the residues as written; N and C are the ends. Side chains are listed from the residue outwards. Ends that are not written are not given here. * marks the point of attachment. C20 diacid = O=C(O)CCCCCCCCCCCCCCCCCCC(=O)*; γGlu = O=C(O)[C@H](CCC(=O)[*:2])N[*:1]

T1: human calcitonin receptor (human, UniProt P30988 25-474)
T1 construct: whole, on cells; Membranes prepared from a stably transfected BHK cell line (Assay VII); also called hCTR; hCT
T1 sequence (looked up): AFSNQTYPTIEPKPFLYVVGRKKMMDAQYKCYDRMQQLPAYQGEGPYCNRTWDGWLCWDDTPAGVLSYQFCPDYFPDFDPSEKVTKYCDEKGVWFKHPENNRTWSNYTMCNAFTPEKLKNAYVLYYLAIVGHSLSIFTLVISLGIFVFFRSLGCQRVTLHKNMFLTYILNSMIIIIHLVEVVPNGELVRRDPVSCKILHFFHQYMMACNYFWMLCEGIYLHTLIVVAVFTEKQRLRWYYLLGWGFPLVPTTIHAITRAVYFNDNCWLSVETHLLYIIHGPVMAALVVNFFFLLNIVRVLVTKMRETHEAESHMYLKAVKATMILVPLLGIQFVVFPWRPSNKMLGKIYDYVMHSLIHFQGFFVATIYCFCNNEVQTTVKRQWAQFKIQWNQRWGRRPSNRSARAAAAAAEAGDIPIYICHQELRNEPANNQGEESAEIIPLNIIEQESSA

T2: rat calcitonin receptor (rat, UniProt P32214 25-516)
T2 construct: whole, on cells; Membranes prepared from transiently transfected BHK tk'ts 13 cells (Assay VIII); also called rCTR; rCT
T2 sequence (looked up): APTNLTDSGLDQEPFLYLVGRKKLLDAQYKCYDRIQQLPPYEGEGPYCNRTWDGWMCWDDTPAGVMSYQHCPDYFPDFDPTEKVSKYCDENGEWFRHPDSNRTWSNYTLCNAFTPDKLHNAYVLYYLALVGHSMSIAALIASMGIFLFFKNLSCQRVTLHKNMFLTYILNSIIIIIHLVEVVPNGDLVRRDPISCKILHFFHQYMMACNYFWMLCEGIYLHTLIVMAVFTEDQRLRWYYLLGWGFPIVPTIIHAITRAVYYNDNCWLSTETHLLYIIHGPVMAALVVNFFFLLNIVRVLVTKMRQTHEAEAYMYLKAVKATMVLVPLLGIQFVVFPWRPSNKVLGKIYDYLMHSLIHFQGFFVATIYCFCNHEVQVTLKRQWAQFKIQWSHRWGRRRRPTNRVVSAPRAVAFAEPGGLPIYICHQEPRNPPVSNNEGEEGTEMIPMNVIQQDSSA

T3: rat amylin receptor (rat calcitonin receptor + rat RAMP 3) (rat, UniProt P32214 25-516; Q9JJ73 23-147)
T3 construct: whole, on cells; Membranes prepared from transiently transfected BHK tk'ts 13 cells (Assay VI); also called rAmylin-R; rAmylin
T3 sequence (looked up) 1: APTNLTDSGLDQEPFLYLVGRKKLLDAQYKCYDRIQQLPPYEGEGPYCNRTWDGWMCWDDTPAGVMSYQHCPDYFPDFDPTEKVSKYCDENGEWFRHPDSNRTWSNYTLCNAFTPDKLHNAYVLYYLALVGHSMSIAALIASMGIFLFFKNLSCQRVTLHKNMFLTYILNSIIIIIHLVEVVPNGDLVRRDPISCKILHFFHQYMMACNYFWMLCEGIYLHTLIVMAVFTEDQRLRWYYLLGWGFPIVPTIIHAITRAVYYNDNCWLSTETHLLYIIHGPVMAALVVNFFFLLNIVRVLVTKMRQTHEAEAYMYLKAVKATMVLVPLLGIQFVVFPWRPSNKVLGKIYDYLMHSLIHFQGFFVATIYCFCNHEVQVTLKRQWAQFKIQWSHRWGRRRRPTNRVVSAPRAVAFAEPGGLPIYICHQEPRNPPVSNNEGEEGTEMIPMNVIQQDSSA
T3 sequence (looked up) 2: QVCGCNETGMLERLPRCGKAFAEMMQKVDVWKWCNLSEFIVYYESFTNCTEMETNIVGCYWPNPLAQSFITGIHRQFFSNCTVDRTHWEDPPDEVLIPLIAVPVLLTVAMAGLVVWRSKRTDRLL


What was measured:
[1] = target: T1, human calcitonin receptor; assay: ratio of binding IC50s: human calcitonin receptor / human amylin receptor (reference)
Procedure, shortened: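 Membranes (35 ng/μL final) + SPA beads, 50 mM Hepes pH 7.4 buffer with 1 mM CaCl2, 5 mM MgCl₂, 0.1% OA, 0.02% Tween20; 120 min, 25° C, shaking; centrifuged, counted; IC₅₀ by one-site binding competition.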

rat calcitonin receptor [2] = target: T2, rat calcitonin receptor; assay: SPA competition vs 125I-calcitonin, membranes of BHK cells with rat calcitonin receptor (Assay VIII)
rat calcitonin receptor [3] = target: T2, rat calcitonin receptor; assay: ratio of binding IC50s: rat calcitonin receptor / rat amylin receptor (reference)
[4] = target: T3, rat amylin receptor (rat calcitonin …); assay: SPA competition vs 125I-rat amylin, membranes of BHK cells with rat calcitonin receptor + rat RAMP3 (Assay VI)

Ratio hCT/hAmylin binding [1] | IC50 (rat calcitonin receptor [2]) [nM] | Ratio rCT/rAmylin binding (rat calcitonin receptor [3]) | IC50 [4] [nM] | Binder
82.4 | 108 | 93.2 | 1.16 | K([γGlu-C20 diacid])CNTATCATQRLARFLRHSSPNFGAIPSSTNVGPNTY-NH2 (disulfide 2-7; N-terminus assumed; SMILES CC[C@H](C)[C@H](NC(=O)[C@H](C)NC(=O)CNC(=O)[C@H](Cc1ccccc1)NC(=O)[C@H](CC(N)=O)NC(=O)[C@@H]1CCCN1C(=O)[C@H](CO)NC(=O)[C@H](CO)NC(=O)[C@H](Cc1c[nH]cn1)NC(=O)[C@H](CCCNC(=N)N)NC(=O)[C@H](CC(C)C)NC(=O)[C@H](Cc1ccccc1)NC(=O)[C@H](CCCNC(=N)N)NC(=O)[C@H](C)NC(=O)[C@H](CC(C)C)NC(=O)[C@H](CCCNC(=N)N)NC(=O)[C@H](CCC(N)=O)NC(=O)[C@@H](NC(=O)[C@H](C)NC(=O)[C@@H]1CSSC[C@H](NC(=O)[C@@H](N)CCCCNC(=O)CC[C@H](NC(=O)CCCCCCCCCCCCCCCCCCC(=O)O)C(=O)O)C(=O)N[C@@H](CC(N)=O)C(=O)N[C@@H]([C@@H](C)O)C(=O)N[C@@H](C)C(=O)N[C@@H]([C@@H](C)O)C(=O)N1)[C@@H](C)O)C(=O)N1CCC[C@H]1C(=O)N[C@@H](CO)C(=O)N[C@@H](CO)C(=O)N[C@H](C(=O)N[C@@H](CC(N)=O)C(=O)N[C@H](C(=O)NCC(=O)N1CCC[C@H]1C(=O)N[C@@H](CC(N)=O)C(=O)N[C@H](C(=O)N[C@@H](Cc1ccc(O)cc1)C(N)=O)[C@@H](C)O)C(C)C)[C@@H](C)O, Analogue of human amylin; also called compound 65)
118 | 205 | 137 | 1.5 | K([γGlu-C20 diacid])CNTATCATQRLANFLRHSSPNFGAIPSSTNVGHNTY-NH2 (disulfide 2-7; N-terminus assumed; SMILES CC[C@H](C)[C@H](NC(=O)[C@H](C)NC(=O)CNC(=O)[C@H](Cc1ccccc1)NC(=O)[C@H](CC(N)=O)NC(=O)[C@@H]1CCCN1C(=O)[C@H](CO)NC(=O)[C@H](CO)NC(=O)[C@H](Cc1c[nH]cn1)NC(=O)[C@H](CCCNC(=N)N)NC(=O)[C@H](CC(C)C)NC(=O)[C@H](Cc1ccccc1)NC(=O)[C@H](CC(N)=O)NC(=O)[C@H](C)NC(=O)[C@H](CC(C)C)NC(=O)[C@H](CCCNC(=N)N)NC(=O)[C@H](CCC(N)=O)NC(=O)[C@@H](NC(=O)[C@H](C)NC(=O)[C@@H]1CSSC[C@H](NC(=O)[C@@H](N)CCCCNC(=O)CC[C@H](NC(=O)CCCCCCCCCCCCCCCCCCC(=O)O)C(=O)O)C(=O)N[C@@H](CC(N)=O)C(=O)N[C@@H]([C@@H](C)O)C(=O)N[C@@H](C)C(=O)N[C@@H]([C@@H](C)O)C(=O)N1)[C@@H](C)O)C(=O)N1CCC[C@H]1C(=O)N[C@@H](CO)C(=O)N[C@@H](CO)C(=O)N[C@H](C(=O)N[C@@H](CC(N)=O)C(=O)N[C@H](C(=O)NCC(=O)N[C@@H](Cc1c[nH]cn1)C(=O)N[C@@H](CC(N)=O)C(=O)N[C@H](C(=O)N[C@@H](Cc1ccc(O)cc1)C(N)=O)[C@@H](C)O)C(C)C)[C@@H](C)O, Analogue of human amylin; also called compound 77) [N^ε1-[(4S)-4-carboxy-4-(19-carboxynonadecanoylamino)butanoyl]-[Arg17,Pro21,Pro27,His34]-h-amylin]
45.2 | 26.3 | 122 | 0.215 | K([γGlu-C20 diacid])CNTATCATQRLANFLRHSSPNFGAIPSSTNVGSHTY-NH2 (disulfide 2-7; N-terminus assumed; SMILES CC[C@H](C)[C@H](NC(=O)[C@H](C)NC(=O)CNC(=O)[C@H](Cc1ccccc1)NC(=O)[C@H](CC(N)=O)NC(=O)[C@@H]1CCCN1C(=O)[C@H](CO)NC(=O)[C@H](CO)NC(=O)[C@H](Cc1c[nH]cn1)NC(=O)[C@H](CCCNC(=N)N)NC(=O)[C@H](CC(C)C)NC(=O)[C@H](Cc1ccccc1)NC(=O)[C@H](CC(N)=O)NC(=O)[C@H](C)NC(=O)[C@H](CC(C)C)NC(=O)[C@H](CCCNC(=N)N)NC(=O)[C@H](CCC(N)=O)NC(=O)[C@@H](NC(=O)[C@H](C)NC(=O)[C@@H]1CSSC[C@H](NC(=O)[C@@H](N)CCCCNC(=O)CC[C@H](NC(=O)CCCCCCCCCCCCCCCCCCC(=O)O)C(=O)O)C(=O)N[C@@H](CC(N)=O)C(=O)N[C@@H]([C@@H](C)O)C(=O)N[C@@H](C)C(=O)N[C@@H]([C@@H](C)O)C(=O)N1)[C@@H](C)O)C(=O)N1CCC[C@H]1C(=O)N[C@@H](CO)C(=O)N[C@@H](CO)C(=O)N[C@H](C(=O)N[C@@H](CC(N)=O)C(=O)N[C@H](C(=O)NCC(=O)N[C@@H](CO)C(=O)N[C@@H](Cc1c[nH]cn1)C(=O)N[C@H](C(=O)N[C@@H](Cc1ccc(O)cc1)C(N)=O)[C@@H](C)O)C(C)C)[C@@H](C)O, Analogue of human amylin; also called compound 60) [N^ε1-[(4S)-4-carboxy-4-(19-carboxynonadecanoylamino)butanoyl]-[Arg17,Pro21,Pro27,His35]-h-amylin]
146 | 140 | 49.7 | 2.83 | K([γGlu-C20 diacid])CNTATCATQRLARFLRHSSPNFGAIPSSTNVGSNTY-NH2 (disulfide 2-7; N-terminus assumed; SMILES CC[C@H](C)[C@H](NC(=O)[C@H](C)NC(=O)CNC(=O)[C@H](Cc1ccccc1)NC(=O)[C@H](CC(N)=O)NC(=O)[C@@H]1CCCN1C(=O)[C@H](CO)NC(=O)[C@H](CO)NC(=O)[C@H](Cc1c[nH]cn1)NC(=O)[C@H](CCCNC(=N)N)NC(=O)[C@H](CC(C)C)NC(=O)[C@H](Cc1ccccc1)NC(=O)[C@H](CCCNC(=N)N)NC(=O)[C@H](C)NC(=O)[C@H](CC(C)C)NC(=O)[C@H](CCCNC(=N)N)NC(=O)[C@H](CCC(N)=O)NC(=O)[C@@H](NC(=O)[C@H](C)NC(=O)[C@@H]1CSSC[C@H](NC(=O)[C@@H](N)CCCCNC(=O)CC[C@H](NC(=O)CCCCCCCCCCCCCCCCCCC(=O)O)C(=O)O)C(=O)N[C@@H](CC(N)=O)C(=O)N[C@@H]([C@@H](C)O)C(=O)N[C@@H](C)C(=O)N[C@@H]([C@@H](C)O)C(=O)N1)[C@@H](C)O)C(=O)N1CCC[C@H]1C(=O)N[C@@H](CO)C(=O)N[C@@H](CO)C(=O)N[C@H](C(=O)N[C@@H](CC(N)=O)C(=O)N[C@H](C(=O)NCC(=O)N[C@@H](CO)C(=O)N[C@@H](CC(N)=O)C(=O)N[C@H](C(=O)N[C@@H](Cc1ccc(O)cc1)C(N)=O)[C@@H](C)O)C(C)C)[C@@H](C)O, Analogue of human amylin; also called compound 83) [N^ε1-[(4S)-4-carboxy-4-(19-carboxynonadecanoylamino)butanoyl]-[Arg14,Arg17,Pro21,Pro27]-h-amylin]
46.1 | 35.5 | 21.5 | 1.65 | K([γGlu-C20 diacid])CNTATCATQRLANFLRHSSPNFGAIPSSTNVGRNTY-NH2 (disulfide 2-7; N-terminus assumed; SMILES CC[C@H](C)[C@H](NC(=O)[C@H](C)NC(=O)CNC(=O)[C@H](Cc1ccccc1)NC(=O)[C@H](CC(N)=O)NC(=O)[C@@H]1CCCN1C(=O)[C@H](CO)NC(=O)[C@H](CO)NC(=O)[C@H](Cc1c[nH]cn1)NC(=O)[C@H](CCCNC(=N)N)NC(=O)[C@H](CC(C)C)NC(=O)[C@H](Cc1ccccc1)NC(=O)[C@H](CC(N)=O)NC(=O)[C@H](C)NC(=O)[C@H](CC(C)C)NC(=O)[C@H](CCCNC(=N)N)NC(=O)[C@H](CCC(N)=O)NC(=O)[C@@H](NC(=O)[C@H](C)NC(=O)[C@@H]1CSSC[C@H](NC(=O)[C@@H](N)CCCCNC(=O)CC[C@H](NC(=O)CCCCCCCCCCCCCCCCCCC(=O)O)C(=O)O)C(=O)N[C@@H](CC(N)=O)C(=O)N[C@@H]([C@@H](C)O)C(=O)N[C@@H](C)C(=O)N[C@@H]([C@@H](C)O)C(=O)N1)[C@@H](C)O)C(=O)N1CCC[C@H]1C(=O)N[C@@H](CO)C(=O)N[C@@H](CO)C(=O)N[C@H](C(=O)N[C@@H](CC(N)=O)C(=O)N[C@H](C(=O)NCC(=O)N[C@@H](CCCNC(=N)N)C(=O)N[C@@H](CC(N)=O)C(=O)N[C@H](C(=O)N[C@@H](Cc1ccc(O)cc1)C(N)=O)[C@@H](C)O)C(C)C)[C@@H](C)O, Analogue of human amylin; also called compound 79) [N^ε1-[(4S)-4-carboxy-4-(19-carboxynonadecanoylamino)butanoyl]-[Arg17,Pro21,Pro27,Arg34]-h-amylin]
